According to US20240247080A1, “GLP1/GIP/NPY2 RECEPTOR TRIPLE AGONISTS” (Boehringer Ingelheim International GmbH, priority 2022, published 2024):
Starred links: 1 amine or outer side, 2 acyl side, 3 side chain; linkers in the order of their positions; H or OH if unused. Non-standard residues stand in square brackets, D forms with d. Groups on a side chain read outwards from the residue. No end group written: not given here. *: point of attachment. C20 diacid = O=C(O)CCCCCCCCCCCCCCCCCCC(=O)*; C18 diacid = O=C(O)CCCCCCCCCCCCCCCCC(=O)*; γGlu = O=C(O)[C@H](CCC(=O)[*:2])N[*:1]; εLys = N[C@@H](CCCCN[*:1])C(=O)[*:2]; glu = not defined here; AEEA = NCCOCCOCC(=O)O; Aib = CC(C)(N)C(=O)O

T1: GIP receptor (human (printed as hGIPR), UniProt P48546 22-466)
T1 sequence (looked up): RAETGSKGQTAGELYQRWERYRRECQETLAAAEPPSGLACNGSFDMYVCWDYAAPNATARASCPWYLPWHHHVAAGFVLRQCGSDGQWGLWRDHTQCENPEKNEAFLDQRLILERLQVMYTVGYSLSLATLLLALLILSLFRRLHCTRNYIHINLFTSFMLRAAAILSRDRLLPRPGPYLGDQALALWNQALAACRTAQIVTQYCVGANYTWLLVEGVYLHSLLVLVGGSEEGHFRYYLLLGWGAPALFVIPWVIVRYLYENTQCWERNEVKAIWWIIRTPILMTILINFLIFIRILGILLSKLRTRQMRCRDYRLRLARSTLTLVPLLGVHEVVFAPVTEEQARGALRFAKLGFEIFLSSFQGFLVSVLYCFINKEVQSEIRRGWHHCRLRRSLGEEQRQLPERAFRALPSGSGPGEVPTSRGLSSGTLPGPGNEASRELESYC

T2: NPY2 receptor (human (printed as hNPY2R), UniProt P49146 1-381)
T2 sequence (looked up): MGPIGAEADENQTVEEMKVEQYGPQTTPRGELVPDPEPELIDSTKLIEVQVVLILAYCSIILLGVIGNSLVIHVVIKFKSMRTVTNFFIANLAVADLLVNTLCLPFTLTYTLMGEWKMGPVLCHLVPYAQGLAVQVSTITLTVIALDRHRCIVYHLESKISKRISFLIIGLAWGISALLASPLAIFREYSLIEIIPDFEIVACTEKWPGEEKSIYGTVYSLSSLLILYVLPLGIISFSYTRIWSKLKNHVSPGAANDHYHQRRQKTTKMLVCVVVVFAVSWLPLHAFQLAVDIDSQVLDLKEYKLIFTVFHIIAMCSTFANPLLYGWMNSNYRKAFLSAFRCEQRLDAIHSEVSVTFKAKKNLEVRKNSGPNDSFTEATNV

B1: Compound 190 (peptide)
peptide: YXEGTFTSDYSIXLEKQAQXAFVEWLIKGGPSSGASLRHYYNWRTRQRY
modifications: Aib at 2, 13, 20; D-Arg at 44; K28 side chain carries C20DA-gGlu-gGlu-gGlu-gGlu-Glu-gGlu-eLys (so in the source); C-terminal amide
B2: Compound 197 (peptide)
peptide: YXEGTFTSDYSIXLEKQAQXAFVEWLIKGGPSSGALLRHYYNWLTRQRY
modifications: Aib at 2, 13, 20; K28 side chain carries C20DA-gGlu-gGlu-gGlu-gGlu-gGlu-gGlu-eLys; C-terminal amide
B3: Compound 196 (peptide)
peptide: YXEGTFTSDYSIXLEKQAQXAFVQWLIKGGPEEGASLRHYYNWLTRQRY
modifications: Aib at 2, 13, 20; K28 side chain carries C18DA-E-E-E-E-E-E-eLys (SEQ ID NO: 643); C-terminal amide
B4: Compound 195 (peptide)
peptide: YXEGTFTSDYSIXLEKQAQXAFVEWLIKGGPSSGASLRHYYNLLTRQRY
modifications: Aib at 2, 13, 20; K28 side chain carries C20DA-gGlu-gGlu-gGlu-gGlu-gGlu-gGlu-eLys; C-terminal amide
B5: Compound 191 (peptide)
peptide: YXEGTFTSDYSIXLEKQAQXAFVEWLIKGGPSSGASLRHYYNWLTRQRX
modifications: Aib at 2, 13, 20; Tle at 49; K28 side chain carries C20DA-gGlu-gGlu-gGlu-gGlu-gGlu-gGlu-eLys; C-terminal amide

Columns and labels:
Assay in all cases: cell-based or functional assay
[1] = target: GLP-1 receptor (human (printed as hGLP1R), UniProt P43220 24-463)
[2] = target: T1, GIP receptor
[3] = target: T2, NPY2 receptor

Binder | EC50 hGLP1R 0.5% hP (CreLuc) [1] [nM] | EC50 hGLP1R 100% hP (CreLuc) [1] [nM] | EC50 hGIPR 0.5% hP (CreLuc) [2] [nM] | EC50 hGIPR 100% hP (CreLuc) [2] [nM] | EC50 hNPY2R 0.5% hP (CreLuc) [3] [nM] | EC50 hNPY2R 100% hP (CreLuc) [3] [nM]
Y[Aib]EGTFTSDYSI[Aib]LEKQAQ[Aib]EFVEWLIKGGPSSGASLRHYYNWLTRQRY-NH2 (not fully specified (residue 28); also: TFA salt) [Compound 201] | 0.28 | 10.4 | 0.49 | 1.03 | 16.3 | 31
Y[Aib]EGTFTSDYSI[Aib]LEK(Ac)QAQ[Aib]AFVEWLIK([εLys-glu-γGlu-γGlu-γGlu-γGlu-γGlu-C20 diacid])GGPSSGASLRHYYNWLTRQRY-NH2 (reading uncertain; also: TFA salt) [Compound 192] | 0.13 | 2.01 | 0.28 | 1.95 | 20.5 | 128
Y[Aib]EGTFTSDYSI[Aib]LEKQAQ[Aib]EFVEWLIK([AEEA-AEEA-γGlu-γGlu-γGlu-γGlu-C20 diacid])GGPSSGASLRHYYNWLTRQRY-NH2 (also: TFA salt) [Compound 205] | 0.44 | 12.3 | 0.33 | 1.87 | 10.6 | 37.7
Y[Aib]EGTFTSDYSI[Aib]LE[Aib]QAQ[Aib]AFVEWLIKGGPSSGASLRHYYNWLTRQRY-NH2 (not fully specified (residue 28); also: TFA salt) [Compound 199] | 1.26 | 13.8 | 0.94 | 5.5 | 30 | 106
Y[Aib]EGTFTSDYSI[Aib]LEKQAQ[Aib]EFVQWLIK([γGlu-γGlu-γGlu-γGlu-C18 diacid])GGPSEGASLRHYYNWLTRQRY-NH2 (also: TFA salt) [Compound 202] | 0.21 | 10.4 | 0.26 | 1.81 | 12.9 | 64.5
Y[Aib]EGTFTSDYSI[Aib]LEKQAQ[Aib]AFVEWLIKGGPSYYASLRHYYNWLTRQRY-NH2 (not fully specified (residue 28); also: TFA salt) [Compound 203] | 0.33 | 27 | 0.5 | 12.4 | 9.07 | 54.1
Y[Aib]EGTFTSDYSI[Aib]LEKQAQ[Aib]AFVQWLIK([AEEA-AEEA-γGlu-γGlu-γGlu-γGlu-C20 diacid])GGPEEGASLRHYYNWLTRQRY-NH2 (also: TFA salt) [Compound 193] | 0.36 | 20.8 | 0.5 | 3.4 | 13.6 | 73.3
B1 | 0.1 | 1.09 | 0.13 | 1.18 | > 100 | > 1000
B2 | 0.31 | 6.06 | 0.43 | 3.61 | 42.6 | 158
B3 | 0.2 | 13.6 | 0.25 | 3.68 | 25.2 | 152
B4 | 0.13 | 1.9 | 0.25 | 1.42 | 26.1 | 137
B5 | 0.17 | 2.92 | 0.23 | 2 | > 99.9 | > 999
Y[Aib]EGTFTSDYSI[Aib]LEKQAQ[Aib]EFVQWLIK([γGlu-γGlu-γGlu-γGlu-C20 diacid])GGPSEGASLRHYYNWLTRQRY-NH2 (also: TFA salt) [Compound 194] | 0.29 | 14.2 | 0.2 | 1.83 | 13.8 | 93.7
Y[Aib]EGTFTSDYSI[Aib]LEKQAQ[Aib]EFVEWLIKGGPSSGASLRHYYNWLTRQRY-NH2 (not fully specified (residue 28); also: TFA salt) [Compound 198] | 0.47 | 15.8 | 0.26 | 5.01 | 13.1 | 69.9
Y[Aib]EGTFTSDYSI[Aib]LEKQAE[Aib]AFVQWLIK([εLys-γGlu-γGlu-γGlu-γGlu-γGlu-C20 diacid])GGPSEGASLRHYYNWLTRQRY-NH2 (also: TFA salt) [Compound 200] | 0.48 | 25.8 | 0.37 | 3.56 | 12.1 | 64.3
Y[Aib]EGTFTSDYSI[Aib]LEKQAQ[Aib]AFVEWLIKGGPSSGASLRHYYNW[dD]TRQRY-NH2 (not fully specified (residue 28); also: TFA salt) [Compound 204] | 0.12 | 3.14 | 0.35 | 2.88 | > 99.9 | > 999
